Reference: US20190309079A1 (Regeneron, published 2019)

Assays:
Experiment in all cases: Luminex, myc-captured protein on beads
[1] = biological target: T1, human LEPR CRH1-Ig (D1,D2,D3)-MMH (human, UniProt P48357 22-427, limits assumed)
T1 construct: domain: CRH1-Ig (D1,D2,D3); also called human LEPR CRH1 (D1,D2,D3)-MMH
T1 sequence (looked up): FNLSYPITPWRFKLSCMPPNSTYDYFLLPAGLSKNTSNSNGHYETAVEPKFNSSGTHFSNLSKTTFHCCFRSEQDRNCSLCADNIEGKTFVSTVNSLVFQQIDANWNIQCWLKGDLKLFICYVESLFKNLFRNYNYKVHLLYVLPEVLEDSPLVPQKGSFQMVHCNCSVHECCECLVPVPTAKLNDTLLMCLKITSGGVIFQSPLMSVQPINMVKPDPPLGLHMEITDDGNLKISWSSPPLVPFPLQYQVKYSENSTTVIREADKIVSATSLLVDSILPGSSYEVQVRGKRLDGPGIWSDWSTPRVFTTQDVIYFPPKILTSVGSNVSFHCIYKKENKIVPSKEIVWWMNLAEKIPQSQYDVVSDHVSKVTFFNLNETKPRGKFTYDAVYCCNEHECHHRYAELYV
Description: (§1) Aliquots of microspheres with immobilized anti-myc monoclonal antibodies, prepared as described above, were added individually to 1 mL of the each of these protein supernatants. The microspheres were gently mixed, incubated for two hours at 25° C., washed twice with 1 mL of DBPS, centrifuged to remove the supernatant and finally resuspended in 1 mL of DPBS buffer. […] of anti-myc IgG coupled microspheres from individual reactions with full length human LEPR and with each of the human LEPR domain proteins were withdrawn and mixed together in 3.6 mL of PBS+20 mg/mL BSA+0.05% sodium azide (blocking buffer).
(§2) From this mixed pool, 75 μL of microspheres were plated per well on a 96 well filter plate (Millipore, Cat. No: MSBVN1250) and mixed with 25 μL of individual anti-human LEPR monoclonal antibodies (0.5 or 5 μg/mL), incubated for two hours at 25° C. and then washed twice with 200 μL of DPBS with 0.05% Tween 20 (washing buffer). […] After 30 minutes, the samples were washed twice with 200 µL of washing buffer and resuspended in 150 μL of wash buffer. The Median Fluorescence intensity (MFI) of the microspheres was measured in a Luminex Analyzer.

[2] = biological target: T2, human LEPR CRH1-Ig (D2,D3)-MMH (human, UniProt P48357 230-427, limits assumed)
T2 construct: domain: CRH1-Ig (D2,D3)
T2 sequence (looked up): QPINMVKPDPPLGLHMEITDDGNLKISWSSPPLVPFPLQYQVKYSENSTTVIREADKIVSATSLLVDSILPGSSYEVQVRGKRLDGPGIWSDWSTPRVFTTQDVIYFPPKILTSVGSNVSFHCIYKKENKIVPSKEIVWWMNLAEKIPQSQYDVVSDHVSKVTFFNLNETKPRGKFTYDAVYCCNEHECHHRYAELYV
Description: as §1, §2

[3] = biological target: T3, human LEPR Ig (D3)-MMH (human, UniProt P48357 340-427, limits assumed)
T3 construct: domain: Ig (D3)
T3 sequence (looked up): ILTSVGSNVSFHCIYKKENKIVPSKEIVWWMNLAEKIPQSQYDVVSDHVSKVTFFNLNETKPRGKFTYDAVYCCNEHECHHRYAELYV
Description: as §1, §2

[4] = biological target: T4, human LEPR CRH2-MMH (human, UniProt P48357 428-634, limits assumed)
T4 construct: domain: CRH2
T4 sequence (looked up): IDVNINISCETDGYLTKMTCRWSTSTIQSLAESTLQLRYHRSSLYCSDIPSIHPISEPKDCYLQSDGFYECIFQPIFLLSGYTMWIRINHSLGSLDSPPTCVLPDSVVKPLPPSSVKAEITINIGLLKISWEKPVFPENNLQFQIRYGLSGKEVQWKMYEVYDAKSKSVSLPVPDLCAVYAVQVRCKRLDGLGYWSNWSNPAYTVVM
Description: as §1, §2

[5] = biological target: T5, human LEPR FNIII-MMH (human, UniProt P48357 636-839, limits assumed)
T5 construct: domain: FNIII
T5 sequence (looked up): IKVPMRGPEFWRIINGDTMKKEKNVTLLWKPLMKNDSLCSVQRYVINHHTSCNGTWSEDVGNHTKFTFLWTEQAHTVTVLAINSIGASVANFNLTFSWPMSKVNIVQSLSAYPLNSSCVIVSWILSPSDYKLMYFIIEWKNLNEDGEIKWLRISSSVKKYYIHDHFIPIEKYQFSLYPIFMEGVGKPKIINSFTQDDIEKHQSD
Description: as §1, §2

[6] = biological target: T6, human LEPR Ig-CRH2-FNIII-MMH (human, UniProt P48357 330-839, limits assumed)
T6 construct: domain: Ig-CRH2-FNIII
T6 sequence (looked up): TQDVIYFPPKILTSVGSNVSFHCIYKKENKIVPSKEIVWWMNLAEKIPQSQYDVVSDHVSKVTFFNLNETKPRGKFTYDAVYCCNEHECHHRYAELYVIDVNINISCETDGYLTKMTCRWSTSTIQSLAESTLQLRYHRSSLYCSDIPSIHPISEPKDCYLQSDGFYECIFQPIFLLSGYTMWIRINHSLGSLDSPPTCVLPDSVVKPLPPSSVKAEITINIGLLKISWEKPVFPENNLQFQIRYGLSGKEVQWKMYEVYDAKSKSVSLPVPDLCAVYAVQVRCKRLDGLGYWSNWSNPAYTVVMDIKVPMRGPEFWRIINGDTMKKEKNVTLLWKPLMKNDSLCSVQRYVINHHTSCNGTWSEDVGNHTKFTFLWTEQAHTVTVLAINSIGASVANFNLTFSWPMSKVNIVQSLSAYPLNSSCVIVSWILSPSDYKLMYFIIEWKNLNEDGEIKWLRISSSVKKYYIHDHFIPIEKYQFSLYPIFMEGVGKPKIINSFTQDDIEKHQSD
Description: as §1, §2

B1: H4H17319P2 (antibody, V domains shown)
VH: QVQLVESGGSVVQPGRSLRLSCAASGFTFSTYAMYWVRQTPGKGLEWVAVLYSDGSNKYYIDSVKGRFTISRDTSTNTLYLQMSSLRADDSALYYCARLNWDYWYFDLWGRGTLVTVSS
VL: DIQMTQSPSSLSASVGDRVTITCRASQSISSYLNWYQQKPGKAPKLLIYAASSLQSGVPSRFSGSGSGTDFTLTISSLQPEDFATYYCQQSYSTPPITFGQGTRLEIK
notes: also called REGN4461
Luminex MFI [1]: 938 MFI
Luminex MFI [2]: 14 MFI
Luminex MFI [3]: 8 MFI
Luminex MFI [4]: 91 MFI
Luminex MFI [5]: 20 MFI
Luminex MFI [6]: 8 MFI

B2: H4H18446P2 (antibody, human IgG4, V domains shown)
VH: EVQLVESGGGLVQPGGSLRLSCAASGFTFSNYGMTWVRQAPGKGLEWVSAITGGGGSTYYSNSVKGRFTISRDNSKNTVYLRMNSVRAEDTAVYYCAKYKWNFVDDWGQGTTVTVSS
VL: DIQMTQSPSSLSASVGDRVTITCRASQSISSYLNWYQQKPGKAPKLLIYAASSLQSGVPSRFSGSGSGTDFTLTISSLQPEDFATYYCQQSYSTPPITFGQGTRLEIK
notes: human IgG4 Fc
Luminex MFI [3]: 25 MFI
Luminex MFI [4]: 65 MFI
Luminex MFI [5]: 32 MFI
Luminex MFI [6]: 16900 MFI

B3: H4H18417P2 (antibody, V domains shown)
VH: QVQLVESGGGVVQPGRSLRLSCAASGFTFSTYGMHWVRQAPGKGLEWVSVISYDESNKYYADSVKGRFTISRDNSKNALYLQMNSLRNEDTAVYYCARDRPFGLVTGWFDPWGQGTLVTVSS
VL: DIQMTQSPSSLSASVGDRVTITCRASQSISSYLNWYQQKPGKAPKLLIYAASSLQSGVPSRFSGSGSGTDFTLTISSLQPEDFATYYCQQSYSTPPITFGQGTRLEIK
Luminex MFI [1]: 3330 MFI
Luminex MFI [2]: 5500 MFI
Luminex MFI [3]: 17 MFI
Luminex MFI [4]: 39 MFI
Luminex MFI [5]: 14 MFI
Luminex MFI [6]: 37 MFI

B4: H4H18438P2 (antibody, V domains shown)
VH: QVQLVESGGGVVQPGRSLRLSCAASGFSFNTYGMHWVRQAPGKGLEWVTIIWYDGSIKYYADSVKGRFTISRDNSKNTLYLQMNSLRAEDTAVYYCARGGYSGYLYFDYWGQGTLVTVSS
VL: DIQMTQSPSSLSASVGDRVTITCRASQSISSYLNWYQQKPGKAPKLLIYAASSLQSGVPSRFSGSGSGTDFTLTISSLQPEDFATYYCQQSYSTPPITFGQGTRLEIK
Luminex MFI [1]: 6570 MFI
Luminex MFI [2]: 8880 MFI
Luminex MFI [3]: 30 MFI
Luminex MFI [5]: 25 MFI

B5: H4H18445P2 (antibody, human IgG4, V domains shown)
VH: QVQLQESGPGLVKPSQTLSLTCTVSGGSISSGGDYWSWIRQLPGKGLEWIGYIYYSGSAYYNPSLKSRGTISIDTSKNQFSLKLTSVTAADTAVYFCVKLRFLEWFLGGWFGPWGQGTLVTVSS
VL: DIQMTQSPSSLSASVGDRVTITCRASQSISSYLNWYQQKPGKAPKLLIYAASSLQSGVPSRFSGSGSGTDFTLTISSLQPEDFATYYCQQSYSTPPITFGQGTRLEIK
notes: human IgG4 Fc
Luminex MFI [1]: 22 MFI
Luminex MFI [2]: 40 MFI
Luminex MFI [3]: 19 MFI
Luminex MFI [4]: 17 MFI
Luminex MFI [5]: 230 MFI
Luminex MFI [6]: 14500 MFI

B6: H4H16679P2 (antibody, V domains shown)
VH: QVQLVESGGGVVQPGRSLRLSCTASGFTFSSYAMYWVRQAPGKGLEWVSVIYYDGSYKYYADSVKGRFTISRDNSKNTLYLQMDSLRAEDTAVYYCASYNWNYWYFDFWGRGTLVTVSS
VL: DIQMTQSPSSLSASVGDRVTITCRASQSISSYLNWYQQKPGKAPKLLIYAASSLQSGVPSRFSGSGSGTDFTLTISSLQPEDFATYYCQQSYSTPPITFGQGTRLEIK
Luminex MFI [1]: 2800 MFI
Luminex MFI [2]: 34 MFI
Luminex MFI [3]: 14 MFI
Luminex MFI [4]: 33 MFI
Luminex MFI [5]: 10 MFI
Luminex MFI [6]: 42 MFI

B7: H4H17321P2 (antibody, V domains shown)
VH: QVQLVESGGGVVQPGRSLRLSCEASGFSSSDNAMYWVRQAPGKGLEWVSVIYHDGSYKYYEDSVKGRFTIARDNSKNTLYLQMNSLRAEDTAVYYCARYNWNHWYFDVWGRGTLVTVSS
VL: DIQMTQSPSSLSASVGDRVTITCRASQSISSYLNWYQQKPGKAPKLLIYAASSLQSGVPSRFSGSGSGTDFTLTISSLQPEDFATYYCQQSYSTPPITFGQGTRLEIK
Luminex MFI [1]: 1750 MFI
Luminex MFI [2]: 15 MFI
Luminex MFI [3]: 7 MFI
Luminex MFI [4]: 116 MFI
Luminex MFI [5]: 40 MFI
Luminex MFI [6]: 14 MFI

B8: H4H16650P2 (antibody, V domains shown)
VH: QVQLVESGGGVVQPGKSLRLSCVASGFTFSSDAMYWVRQAPGKGLEWVAVIYYDGNYQYYEDSVKGRFTISRDNSQNTLDLQMNSLRVDDTAVYFCARLNWDYWYLDLWGRGTLVTVSS
VL: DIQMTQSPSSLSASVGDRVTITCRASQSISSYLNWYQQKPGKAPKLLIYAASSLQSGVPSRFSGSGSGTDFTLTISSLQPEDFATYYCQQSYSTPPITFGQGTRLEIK
Luminex MFI [1]: 2560 MFI
Luminex MFI [2]: 74 MFI
Luminex MFI [3]: 10 MFI
Luminex MFI [4]: 16 MFI
Luminex MFI [5]: 6 MFI
Luminex MFI [6]: 110 MFI

B9: H4H18449P2 (antibody, human IgG4, V domains shown)
VH: EVQLVESGGGLVQPGGSLRLSCVASGFTFNKYDMHWVRQTTGKGLEWVSGIDTDGDTYYPGSVKGRFTISRENAENSLYLQMNGLRVGDTAVYYCARWPWSGFYGAFDIWGQGTMVTVSS
VL: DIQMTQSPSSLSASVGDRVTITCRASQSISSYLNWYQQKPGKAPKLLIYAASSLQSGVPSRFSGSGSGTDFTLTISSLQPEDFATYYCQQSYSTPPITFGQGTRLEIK
notes: human IgG4 Fc
Luminex MFI [1]: 2060 MFI
Luminex MFI [2]: 42 MFI
Luminex MFI [3]: 24 MFI
Luminex MFI [4]: 15 MFI
Luminex MFI [5]: 13 MFI
Luminex MFI [6]: 43 MFI
